From the supplement of paper PMC10567573

Experiment: protein stability index of a GFP-peptide fusion (GPS, HEK-293T) (PSI 1-6); higher = more stable
Settings: c terminus: native
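Further: lentivirally expressed fusion library, cells FACS-sorted into six equal-sized GFP/DsRed ratio bins, PSI computed from sequencing read fractions per bin weighted by bin number.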

B1: POLD2 addC (peptide)
chain: CQPISFSGFGAEDDDLGGLGLGPC
protein stability index (parent: NP_006221.1): 2.27

B2: PSMB5 addC (peptide)
chain: DGWIRVSSDNVADLHEKYSGSTPC
protein stability index (parent: NP_002788.1): 2.89

B3: BEX2 addC (peptide)
chain: HSLRAVSTDPPHHDHHDEFCLMPC
protein stability index (parent: NP_116010.1): 3.48

B4: SNF8 addC (peptide)
chain: LPALFTDLYSQEITAEEAREALPC
protein stability index (parent: NP_009172.2): 3.81

B5: TRPA1 addC (peptide)
chain: EQRNSRWNTVLRAVKAKTHHLEPC
protein stability index (parent: NP_015628.1): 4.32
